Test results taken from publication PMC7734321, “Lesion Recognition and Cleavage of Damage-Containing Quadruplexes and Bulged Structures by DNA Glycosylases”.

What was measured:
[1] = molecular target: T1, Nei (endonuclease VIII) (Escherichia coli, UniProt P50465 2-263); assay: MST; MST: 50 mM Tris-HCl pH 7.5, 50 mM KCl, 1 mM EDTA, 1 mM DTT, 7% glycerol, 25 C, 10 min, 0.5 uM DNA; authors call Kd values estimates only; settings: protein: recombinant, tags: none (native form without tags)
T1 sequence: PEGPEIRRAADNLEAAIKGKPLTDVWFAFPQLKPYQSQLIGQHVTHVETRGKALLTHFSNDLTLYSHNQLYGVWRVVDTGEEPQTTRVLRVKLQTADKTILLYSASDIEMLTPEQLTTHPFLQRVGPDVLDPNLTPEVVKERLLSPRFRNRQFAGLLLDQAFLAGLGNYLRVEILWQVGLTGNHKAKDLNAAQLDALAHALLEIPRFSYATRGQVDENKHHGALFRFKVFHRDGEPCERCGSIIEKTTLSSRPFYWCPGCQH

[2] = molecular target: T2, Fpg (formamidopyrimidine-DNA glycosylase) (Escherichia coli, UniProt P05523 2-269); assay: as above; settings: protein: recombinant, tags: none (native form without tags)
T2 sequence: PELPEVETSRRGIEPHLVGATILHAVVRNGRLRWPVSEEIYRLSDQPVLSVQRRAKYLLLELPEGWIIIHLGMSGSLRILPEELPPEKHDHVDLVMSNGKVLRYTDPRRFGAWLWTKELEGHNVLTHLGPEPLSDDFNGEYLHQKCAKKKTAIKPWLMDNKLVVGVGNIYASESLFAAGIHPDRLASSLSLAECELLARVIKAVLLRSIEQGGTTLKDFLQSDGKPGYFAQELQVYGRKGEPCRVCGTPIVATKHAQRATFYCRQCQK

[3] = molecular target: NEIL1 (endonuclease VIII-like 1) (Homo sapiens, UniProt Q96FI4 2-390); assay: as above; settings: protein: recombinant
NEIL1 (endonuclease VIII-like 1), sequence (Q96FI4 2-390): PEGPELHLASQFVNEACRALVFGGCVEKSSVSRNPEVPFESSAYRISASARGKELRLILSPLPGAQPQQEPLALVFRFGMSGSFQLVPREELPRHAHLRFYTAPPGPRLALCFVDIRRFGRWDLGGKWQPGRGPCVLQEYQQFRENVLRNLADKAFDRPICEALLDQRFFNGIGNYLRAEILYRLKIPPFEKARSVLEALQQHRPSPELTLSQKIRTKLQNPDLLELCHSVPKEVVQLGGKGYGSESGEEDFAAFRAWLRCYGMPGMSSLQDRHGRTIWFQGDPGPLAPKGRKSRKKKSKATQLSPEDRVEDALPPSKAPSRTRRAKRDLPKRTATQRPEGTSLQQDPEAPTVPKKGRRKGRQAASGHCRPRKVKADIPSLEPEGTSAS

[4] = molecular target: T3, OGG1 (8-oxoguanine-DNA glycosylase) (Homo sapiens, UniProt O15527 1-345); assay: as above; settings: protein: recombinant
T3 sequence (O15527 whole entry): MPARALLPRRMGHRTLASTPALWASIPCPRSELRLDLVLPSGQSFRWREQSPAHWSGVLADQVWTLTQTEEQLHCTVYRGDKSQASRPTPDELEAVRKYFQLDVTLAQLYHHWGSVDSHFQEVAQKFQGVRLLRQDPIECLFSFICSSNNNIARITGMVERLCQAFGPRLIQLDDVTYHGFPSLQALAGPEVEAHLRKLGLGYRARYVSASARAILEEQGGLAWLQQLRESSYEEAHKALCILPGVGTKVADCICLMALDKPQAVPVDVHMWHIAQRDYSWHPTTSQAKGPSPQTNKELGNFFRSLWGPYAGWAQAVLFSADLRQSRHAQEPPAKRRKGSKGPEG

[5] = molecular target: T4, NTH1 (endonuclease III) (Homo sapiens, UniProt P78549 1-304); assay: as above; settings: protein: recombinant
T4 sequence: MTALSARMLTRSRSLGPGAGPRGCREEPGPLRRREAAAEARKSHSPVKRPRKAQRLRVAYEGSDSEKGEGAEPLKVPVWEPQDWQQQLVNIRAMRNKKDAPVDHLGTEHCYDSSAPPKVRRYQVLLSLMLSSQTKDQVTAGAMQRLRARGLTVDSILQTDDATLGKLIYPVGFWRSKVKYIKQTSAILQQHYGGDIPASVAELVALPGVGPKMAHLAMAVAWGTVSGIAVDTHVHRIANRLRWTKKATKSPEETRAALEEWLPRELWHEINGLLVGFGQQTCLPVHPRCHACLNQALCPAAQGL

[6] = molecular target: T2, Fpg (formamidopyrimidine-DNA …); assay: stopped-flow FRET; DNA bending phase before cleavage; MST: 50 mM Tris-HCl pH 7.5, 50 mM KCl, 1 mM EDTA, 1 mM DTT, 7% glycerol, 25 C, 10 min, 0.5 uM DNA; authors call Kd values estimates only; settings: protein: recombinant; tags: none (native form without tags); label: 5'-FAM on strand 1; blunt
[7] = molecular target: T3, OGG1 (8-oxoguanine-DNA glycosylase); assay: as above; settings: protein: recombinant; label: 5'-FAM on strand 1; blunt
[8] = label: 5'-FAM on strand 2, blunt
[9] = label: 5'-FAM, 3'-BHQ1, G-quadruplex

TTAGGGTTAGGGTTAGGGTTAGGGTT (structured_DNA) [Q4] was tested, and the Kd ([1]; G-quadruplex) was 0.9 ± 0.2 µM, the Kd ([2]; G-quadruplex) was 1 ± 0.3 µM and the Kd ([3]; G-quadruplex) was 3.4 ± 0.5 µM. It also gave a Kd ([4]; G-quadruplex) of 0.7 ± 0.2 µM and a Kd ([5]; G-quadruplex) of 2.5 ± 0.8 µM.

B1: C/G (dsDNA)
DNA 1: GCTCACGTACAGAGCTG
DNA 2: CAGCTCTGTACGTGAGC
With B1 the Kd [1, 8] was 3.1 ± 0.7 µM, the Kd [2, 8] was 1.6 ± 1.1 µM and the Kd [3, 8] was 17 ± 15 µM. The Kd [4, 8] was 1.4 ± 0.5 µM and the Kd [5, 8] was 0.7 ± 0.4 µM.

TTAGGGTTAGGGTTAGGGTTAGGGTT (structured_DNA, G17 = 8-oxoguanine) [Q4-oxoG] was tested, and the Kd [2, 9] was 1.2 ± 0.4 µM and the Kd [4, 9] was 1.2 ± 0.3 µM.

B2: Type I oxoG/C (dsDNA)
DNA 1: GCTCAGGTACAGAGCTG
DNA 2: CAGCTCTGTACCTGAGC
modifications: G6 of strand 1 = 8-oxoguanine, opposite C
B2: binds [6]; binds [7].

TTAGGGTTAGGGTTAGGGTTAGGGTT (structured_DNA, T14 = thymine glycol) [Q4-Tg] showed a Kd [1, 9] of 0.8 ± 0.2 µM, a Kd [3, 9] of 9.1 ± 3 µM and a Kd [5, 9] of 1.3 ± 0.3 µM.
